Fold slowing of dissociation against wild-type Nb80 data for one substance are collected here from patent US20180095098A1.

The assay concerns the target Human β2-adrenergic receptor, amino-terminal FLAG epitope tag, truncated after residue 365, biotinylated, bound to the agonist BI-167107 (human) (UniProt P07550). The experiment in a line: SPR (Biacore T100, 25 °C), biotinylated BI-167107-bound receptor on SA chip, single-cycle kinetics.

Where only a bound is given, the exact number is not on record here.

In the case of “Nb6B9, high affinity variant of Nb80 (VHH)”, the fold slowing of dissociation against wild-type Nb80 is above 10 fold.
